Reference: PMC6141180 (2018)

Key:
[1] = target: T1, dual (pThr180, pTyr182) phosphorylated p38α (mouse, UniProt P47811 1-360, phosphothreonine at 180, phosphotyrosine at 182); assay: ITC; p38α dually phosphorylated
[2] = target: T2, p38α (MAPK14), nonphosphorylated (mouse, UniProt P47811 1-360); assay: FP; displacement of fluorescein-labeled MKK3b peptide
[3] = target: T2, p38α (MAPK14), nonphosphorylated; assay: ITC
[4] = target: T1, dual (pThr180, pTyr182) phosphorylated …; assay: ITC; p38α dually phosphorylated; TAB1 pSer423

T2 sequence (P47811 whole entry): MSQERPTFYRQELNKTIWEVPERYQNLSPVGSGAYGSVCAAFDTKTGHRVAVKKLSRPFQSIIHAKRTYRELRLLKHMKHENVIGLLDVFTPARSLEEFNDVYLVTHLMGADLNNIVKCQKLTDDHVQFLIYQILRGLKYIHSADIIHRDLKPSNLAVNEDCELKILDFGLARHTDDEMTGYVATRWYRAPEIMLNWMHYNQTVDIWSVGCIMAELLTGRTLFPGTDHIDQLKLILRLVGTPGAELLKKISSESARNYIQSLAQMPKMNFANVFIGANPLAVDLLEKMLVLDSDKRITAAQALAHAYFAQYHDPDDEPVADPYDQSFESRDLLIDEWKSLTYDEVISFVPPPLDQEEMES
T1 sequence (P47811 whole entry): as above

B1: TAB1 (residues 384–412) peptide (peptide)
peptide: Ac-RVYPVSVPYSSAQSTSKTSVTLSLVMPSQ-NH2
Kd [1]: 2000 nM
IC50 [2]: 11000 nM
Kd [3]: 2900 nM

B2: TAB1 (residues 1–438) (domain or fragment)
chain: MAAQRRSLLQSEQQPSWTDDLPLCHLSGVGSASNRSYSADGKGTESHPPEDNWLKFRSENNCFLYGVFNGYDGNRVTNFVAQRLSAELLLGQLNTEHTEADVRRVLLQAFDVVERSFLESIDDALAEKASLQSQLPEGVPQHQLPPQYQKILERLKALEREISGGAMAVVAVLLNSKLYVANVGTNRALLCKSTVDGLQVTQLNMDHTTENEDELFRLSQLGLDAGKIKQMGVICGQESTRRIGDYKVKYGYTDIDLLSAAKSKPIIAEPEIHGAQPLDGVTGFLVLMSEGLYKALEAAHGPGQANQEIAAMIDTEFAKQTSLDAVAQAVVDRVKRIHSDTFASGGERAKFCPRHEDMTLLVRNFGYPLGEMSQPTPTPAPGGRVYPVSVPYSSAQSTSKTSVTLSLVMPSQGQMVNGSHSASTLDEATPTLTNQSPT
Kd [3]: 1500 nM

B3: TAB1 (residues 1–438) phosphorylated at Serine 423 (domain or fragment)
chain: MAAQRRSLLQSEQQPSWTDDLPLCHLSGVGSASNRSYSADGKGTESHPPEDNWLKFRSENNCFLYGVFNGYDGNRVTNFVAQRLSAELLLGQLNTEHTEADVRRVLLQAFDVVERSFLESIDDALAEKASLQSQLPEGVPQHQLPPQYQKILERLKALEREISGGAMAVVAVLLNSKLYVANVGTNRALLCKSTVDGLQVTQLNMDHTTENEDELFRLSQLGLDAGKIKQMGVICGQESTRRIGDYKVKYGYTDIDLLSAAKSKPIIAEPEIHGAQPLDGVTGFLVLMSEGLYKALEAAHGPGQANQEIAAMIDTEFAKQTSLDAVAQAVVDRVKRIHSDTFASGGERAKFCPRHEDMTLLVRNFGYPLGEMSQPTPTPAPGGRVYPVSVPYSSAQSTSKTSVTLSLVMPSQGQMVNGSHSASTLDEATPTLTNQSPT
modifications: phosphoserine at 423
Kd [4]: 1700 nM

B4: MKK3b peptide, unlabeled (peptide)
peptide: Ac-GKSKRKKDLRISCMSKP-NH2
IC50 [2]: 15000 nM
